In article doi:10.1101/2022.08.19.504623:
Where “and” joins values, the source holds several entries; their conditions need not be identical. Equal values may be shown once.

Assays:
[1] = molecular target: FlaK D236A with a C-terminal His6-tag (Vibrio alginolyticus); assay: cross-linking
[2] = molecular target: FlaK E237Q with a C-terminal His6-tag (Vibrio alginolyticus); assay: cross-linking
[3] = molecular target: FlaK I365E with a C-terminal His6-tag (Vibrio alginolyticus); assay: cross-linking
[4] = molecular target: FlaK I365E with a C-terminal His6-tag (Vibrio alginolyticus); assay: SEC
[5] = molecular target: FlaK K171A with a C-terminal His6-tag (Vibrio alginolyticus); assay: cross-linking
[6] = molecular target: FlaK K171A with a C-terminal His6-tag (Vibrio alginolyticus); assay: cross-linking + SEC
[7] = molecular target: FlaK K171A with a C-terminal His6-tag (Vibrio alginolyticus); assay: SEC
[8] = molecular target: FlaK L371E with a C-terminal His6-tag (Vibrio alginolyticus); assay: cross-linking
[9] = molecular target: FlaK Q140E with a C-terminal His6-tag (Vibrio alginolyticus); assay: cross-linking
[10] = molecular target: FlaK, wild type, with a C-terminal His6-tag (Vibrio alginolyticus); assay: cross-linking
[11] = molecular target: FlaK, wild type, with a C-terminal His6-tag (Vibrio alginolyticus); assay: cross-linking + SEC
[12] = molecular target: FlaK, wild type, with a C-terminal His6-tag (Vibrio alginolyticus); assay: SEC

## FlaK D236A with a C-terminal His6-tag (natural protein)
[1]
  stoichiometry N: 2

## FlaK E237Q with a C-terminal His6-tag (natural protein)
[2]
  stoichiometry N: 2

## FlaK I365E with a C-terminal His6-tag (natural protein)
[3]
  stoichiometry N: 2
[4]
  stoichiometry N: 2

## FlaK K171A with a C-terminal His6-tag (natural protein)
[5]
  stoichiometry N: 2
[6]
  stoichiometry N: 4 and 6
[7]
  stoichiometry N: 2

## FlaK L371E with a C-terminal His6-tag (natural protein)
[8]
  stoichiometry N: 2

## FlaK Q140E with a C-terminal His6-tag (natural protein)
[9]
  stoichiometry N: 2

## FlaK, wild type, with a C-terminal His6-tag (natural protein)
[10]
  stoichiometry N: 2
[11]
  stoichiometry N: 4 and 6
[12]
  stoichiometry N: 2
